# T1: androgen receptor (Homo sapiens, UniProt P10275)
# T1 construct: expressed in transfected cells; host or cells: SH-SY5Y
# T1 sequence (P10275 1-920): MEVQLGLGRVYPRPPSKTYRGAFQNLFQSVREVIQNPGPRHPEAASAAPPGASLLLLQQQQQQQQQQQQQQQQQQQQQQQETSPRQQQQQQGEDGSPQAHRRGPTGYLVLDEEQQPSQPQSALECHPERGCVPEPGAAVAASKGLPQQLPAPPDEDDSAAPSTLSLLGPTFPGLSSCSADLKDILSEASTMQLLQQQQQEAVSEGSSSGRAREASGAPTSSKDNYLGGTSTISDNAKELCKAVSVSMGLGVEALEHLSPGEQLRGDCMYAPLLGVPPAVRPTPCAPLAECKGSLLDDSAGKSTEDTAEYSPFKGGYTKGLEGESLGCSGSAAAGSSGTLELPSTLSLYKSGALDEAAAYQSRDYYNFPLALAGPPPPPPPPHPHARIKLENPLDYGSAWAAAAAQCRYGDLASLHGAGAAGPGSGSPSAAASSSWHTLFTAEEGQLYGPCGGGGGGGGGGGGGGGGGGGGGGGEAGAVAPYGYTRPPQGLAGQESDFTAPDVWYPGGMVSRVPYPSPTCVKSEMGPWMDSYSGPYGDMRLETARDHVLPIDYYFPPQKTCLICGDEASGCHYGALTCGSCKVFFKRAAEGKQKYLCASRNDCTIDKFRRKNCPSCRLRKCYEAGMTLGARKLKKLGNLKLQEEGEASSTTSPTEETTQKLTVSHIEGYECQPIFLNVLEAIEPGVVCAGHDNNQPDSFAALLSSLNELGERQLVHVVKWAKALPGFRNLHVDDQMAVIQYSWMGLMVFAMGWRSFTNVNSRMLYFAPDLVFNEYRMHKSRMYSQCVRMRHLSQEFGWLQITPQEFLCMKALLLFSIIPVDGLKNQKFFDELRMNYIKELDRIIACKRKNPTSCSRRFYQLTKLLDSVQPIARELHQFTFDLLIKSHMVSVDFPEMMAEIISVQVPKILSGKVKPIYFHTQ
# Target: T1, androgen receptor
# Assay: Co-activation of the androgen receptor signal (MMTV-luciferase reporter) in transfected SH-SY5Y cells
# Assay type: cell-based
# Details: SH-SY5Y cells transfected with 1 μg co-activator in CMX, MMTV-luciferase and pSG5AR; DHT for 24 hours; especially at low androgen concentrations of 10^−12-10^−10 M; vs CMX control plasmid
# Protocol: The ARAP11-cDNA which codes for the ARAP11 fragment of amino acids 813-1,390, obtained by PCR, was cloned in the standard manner into the vector CMX and transfected with pSG5-AR and MMTV-luciferase in SH-SY5Y cells, also in the standard manner.
# After 24 hours, the cells were treated with […] (DHT) as the androgen in the indicated concentrations. The transfected cells were harvested after another 24 hours, and the activity of the reporter gene luciferase was measured. In addition, the total quantity of cell protein was determined for the sake of normalization. One experiment and four measurements were conducted per transfection batch and substance concentration. The error range is given as the SD. The values of the corresponding controls without DHT were subtracted from all signals. The activity is expressed in relative units.
molecule,measurement,value
"ARAP11-cDNA: cDNA in vector CMX coding for amino acids 813-1,390 of ARAP11, co-activator for the human androgen receptor (protein, fetalbrain; ARAP11 fragment from amino acid residues 813- 1390) VIHALEKFTVYTLDIPVLFGVSTTSPEETCAQVIREAKRTAPSIVYVPHIHVWWEIVGPTLKATFTTLLQNIPSFAPVLLLATSDKPHSALPEEVQELFIRDYGEIFNVQLPDKEERTKFFEDLILKQAAKPPISKKKAVLQALEVLPVAPPPEPRSLTAEEVKRLEEQEEDTFRELRIFLRNVTHRLAIDKRFRVFTKPVDPDEVPDYVTVIKQPMDLSSVISKIDLHKYLTVKDYLRDIDLICSNALEYNPDRDPGDRLIRHRACALRDTAYAIIKEELDEDFEQLCEEIQESRKKRGCSSSKYAPSYYHVMPKQNSTLVGDKRSDPEQNEKLKTPSTPVACSTPAQLKRKIRKKSNWYLGTIKKRRKISQAKDDSQNAIDHKIESDTEETQDTSVDHNETGNTGESSVEENEKQQNASESKLELRNNSNTCNIENELEDSRKTTACTELRDKIACNGDASSSQIIHISDENEGKEMCVLRMTRARRSQVEQQQLITVEKALAILSQPTPSLVVDHERLKNLLKTVVKKSQNYNIFQLENLYAVISQCIYRHRKDHDKTSLIQKMEQEVENFSCSR",co-activation of the AR signal activity (luciferase reporter activity),strong co-activation of the AR signal activity
